Reference: article PMC9748371
“And” between values parts separate entries of the source, which are not always exact repeats. Identical values can stand only once.

Biological target: EGFR^K642G-mEGFP (UniProt P00533)
Assay: number and brightness

apparent brightness BE: 4.11 and 4.73 and 5.53
Substance: EGFR^K642G-mEGFP (from UniProt P00533) (receptor)
